# According to patent US20260274955A1 (JANUX THERAPEUTICS, published 2026):
# B1: Phage-713 (peptide)
# peptide: YCEGHAEQYMEKCL
# B2: Phage-733 (peptide)
# peptide: YCDGHAMEYMEKCL
# B3: Phage-695 (peptide)
# peptide: YCDGHSMMYMQKCL
# B4: Phage-694 (peptide)
# peptide: YCEGHSTEYIQKCL
# B5: Phage-739 (peptide)
# peptide: YCVGHLPEYMLECM
# B6: Phage-17 (peptide)
# peptide: WICDKSGSIMLCRA
# B7: Phage-15 (peptide)
# peptide: YWYCSPSIVRCVLV
# B8: Phage-706 (peptide)
# peptide: YCDGHRPEYMSKCL
# B9: Phage-737 (peptide)
# peptide: YCAGHAEEYMLKCL
# B10: Phage-701 (peptide)
# peptide: YCAGHLDIYLAKCL
# B11: Phage-747 (peptide)
# peptide: YCDGHAPIYMQKCL
# B12: Phage-4 (peptide)
# peptide: PDCQTILFKPWCVR
# B13: Phage-16 (peptide)
# peptide: PDCHTILFKPWCVR
# B14: Phage-740 (peptide)
# peptide: YCDGHSFHYMAKCL
# B15: Phage-8 (peptide)
# peptide: WCWDYREWVPMTCP
# B16: Phage-14 (peptide)
# peptide: WCWYYREWVPMTCP
# B17: Phage-697 (peptide)
# peptide: YCVGHYPEYMEKCL
# B18: Phage-702 (peptide)
# peptide: YCAGHAPEYISKCL
# B19: Phage-719 (peptide)
# peptide: YCEGHLPQYMSKCL
# B20: Phage-12 (peptide)
# peptide: DCWWMFESYPGRCI
# B21: Phage-700 (peptide)
# peptide: YCHGHLPQYMSKCM
# B22: Phage-13 (peptide)
# peptide: YCAGHAWQYINKCL
# B23: Phage-746 (peptide)
# peptide: YCEGHIPAYMAKCL
# B24: Phage-9 (peptide)
# peptide: ECHWSMWAVGHACF
# B25: Phage-2 (peptide)
# peptide: WECLKYTEANACTY
# B26: Phage-10 (peptide)
# peptide: YCAGHSPINIGKCL
# B27: Phage-693 (peptide)
# peptide: YCEGHIGIYMSKCL
# B28: Phage-5 (peptide)
# peptide: ACDTYFAGMINECF
# B29: Phage-745 (peptide)
# peptide: YCDGHAKVYIWKCL
# B30: Phage-707 (peptide)
# peptide: YCEGHMPEYLAKCL
# B31: Phage-698 (peptide)
# peptide: YCDGHEARYMQKCL
# B32: Phage-748 (peptide)
# peptide: YCEGHLWEYMKKCL
# B33: Phage-718 (peptide)
# peptide: YCDGHLSVYMSKCL
# B34: Phage-734 (peptide)
# peptide: YCEGHLWEYLAKCL
# B35: Phage-742 (peptide)
# peptide: YCDGHANAYIWKCL
# B36: Phage-3 (peptide)
# peptide: FMCLPQNPHPLCFK
# B37: Phage-6 (peptide)
# peptide: GCQYPWAFDAMSCP
# B38: Phage-1 (peptide)
# peptide: YWSCFQIPFTCFYF
# B39: Phage-703 (peptide)
# peptide: YCDGHSWEYLGKCL
# B40: Phage-741 (peptide)
# peptide: YCEGHSEMYMSKCL
# B41: Phage-705 (peptide)
# peptide: YCEGHAAEYLWKCL
# B42: Phage-7 (peptide)
# peptide: WCWDYKLWVPTQCP
# B43: Phage-717 (peptide)
# peptide: YCDGHSWIYMVKCL
# B44: Phage-743 (peptide)
# peptide: YCEGHIPMYMLKCM
# B45: Phage-692 (peptide)
# peptide: YCDGHLEQYMLKCL
# B46: Phage-710 (peptide)
# peptide: YCAGHSSEYIGKCL
# B47: Phage-11 (peptide)
# peptide: WCWDYKLWVPMTCP
# B48: Phage-696 (peptide)
# peptide: YCEGHSAEHMPKCL
# B49: Phage-691 (peptide)
# peptide: YCDGHVEEYMTKCL
# B50: Phage-735 (peptide)
# peptide: YCEGHMGEYMLKCL
# B51: Phage-714 (peptide)
# peptide: YCEGHLKEYMQKCL
# B52: Phage-699 (peptide)
# peptide: YCDGHSQEYMSKCL
# B53: Phage-716 (peptide)
# peptide: YCEGHRAEYMSKCL
# B54: Phage-744 (peptide)
# peptide: YCEGHAQEYMAKCL
# B55: Phage-18 (peptide)
# peptide: SCAAGASYAWPYCL
# B56: Phage-708 (peptide)
# peptide: YCEGHAGVYMAKCL
# Experiments:
# [1] = target: T1, Anti-CD28 Fab (SEQ ID NOs: 202, 203); assay: phage ELISA, Fab on plate, CD28 antigen as competitor
# T1 construct: biotinylated and captured on neutravidin coated plates in the phage ELISA
# T1 sequence (VH, as listed by the source, chain 1 of 2): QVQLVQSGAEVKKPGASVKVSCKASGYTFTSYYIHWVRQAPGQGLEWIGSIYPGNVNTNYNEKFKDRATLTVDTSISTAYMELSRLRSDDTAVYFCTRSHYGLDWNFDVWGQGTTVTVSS
# T1 sequence (VL, as listed by the source, chain 2 of 2): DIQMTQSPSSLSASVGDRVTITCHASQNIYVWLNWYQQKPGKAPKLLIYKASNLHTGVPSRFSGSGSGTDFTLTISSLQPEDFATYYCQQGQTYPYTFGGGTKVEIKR
# Protocol: (§1) After panning, phage infected bacteria were plated out and colonies picked into 96 well blocks. Clonal phage was then amplified and separated from bacterial cells via centrifugation.
# (§2) Clonal phage were harvested as crude supernatants and screened via standard ELISAs. […] Prior to the addition of clonal phage, wells were incubated with blocking buffer and CD28 antigen or blocking buffer alone. Without washing or aspirating, clonal phage supernatants were then added to the wells and incubated for a short time. Wells were then washed followed by detection of bound phage using a horse radish conjugated anti-M13 antibody. Clonal phage of interest were then sent for sequence analysis.
# [2] = target: T1, Anti-CD28 Fab (SEQ ID NOs: 202, 203); assay: phage ELISA, Fab on plate;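 note: crude clonal phage supernatants added to wells pretreated with blocking buffer with or without CD28 antigen, then bound phage read out via HRP-linked anti-M13 antibody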
# Protocol: as §1, §2
# [3] = target: Anti-CD28 Fab (SEQ ID NOs: 202, 203); assay: phage binding ELISA on captured Fab;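 note: clonal phage supernatants added briefly to wells pre-incubated with CD28 antigen or with blocking buffer only, then washed, bound phage read by ELISA using HRP-coupled anti-M13 antibody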
# Target sequence in this assay (VH, as listed by the source, chain 1 of 2): as the sequence (VH, as listed by the source, chain 1 of 2) above
# Target sequence in this assay (VL, as listed by the source, chain 2 of 2): as the sequence (VL, as listed by the source, chain 2 of 2) above
# Protocol: Clonal phage were harvested as crude supernatants and screened via standard ELISAs. […] Prior to the addition of clonal phage, wells were incubated with blocking buffer and CD28 antigen or blocking buffer alone. Without washing or aspirating, clonal phage supernatants were then added to the wells and incubated for a short time. Wells were then washed followed by detection of bound phage using a horse radish conjugated anti-M13 antibody.
Binder,Anti-CD28 Fab signal in the presence of CD28 [1],"Anti-CD28 Fab (SEQ ID NOs: 202, 203) signal [2]",Anti-CD28 Fab signal [3]
B1,0.08,1.17,–
B2,0.08,1.11,–
B3,0.06,1.23,–
B4,0.09,1.23,–
B5,0.07,1.08,–
B6,–,–,0.91
B7,–,–,1.51
B8,0.07,1.18,–
B9,0.07,1.09,–
B10,0.07,1.21,–
B11,0.06,1.06,–
B12,–,–,2.09
B13,–,–,1
B14,0.06,1.08,–
B15,–,–,2.3
B16,–,–,1.85
B17,0.07,1.22,–
B18,0.07,1.21,–
B19,0.09,1.15,–

Binder,Anti-CD28 Fab signal in the presence of CD28 [1],"Anti-CD28 Fab (SEQ ID NOs: 202, 203) signal [2]",Anti-CD28 Fab signal [3]
B20,–,–,1.65
B21,0.06,1.21,–
B22,–,–,0.64
B23,0.08,1.06,–
B24,–,–,1.77
B25,–,–,1.55
B26,–,–,1.49
B27,0.07,1.23,–
B28,–,–,0.92
B29,0.08,1.06,–
B30,0.07,1.18,–
B31,0.07,1.21,–
B32,0.07,1.06,–
B33,0.07,1.15,–
B34,0.05,1.1,–
B35,0.09,1.07,–
B36,–,–,0.84
B37,–,–,2.38
B38,–,–,1.44

Binder,Anti-CD28 Fab signal in the presence of CD28 [1],"Anti-CD28 Fab (SEQ ID NOs: 202, 203) signal [2]",Anti-CD28 Fab signal [3]
B39,0.05,1.2,–
B40,0.09,1.07,–
B41,0.09,1.18,–
B42,–,–,2.27
B43,0.06,1.16,–
B44,0.09,1.06,–
B45,0.09,1.24,–
B46,0.06,1.17,–
B47,–,–,2.51
B48,0.09,1.23,–
B49,0.07,1.24,–
B50,0.06,1.1,–
B51,0.07,1.17,–
B52,0.06,1.21,–
B53,0.09,1.16,–
B54,0.08,1.06,–
B55,–,–,1.49
B56,0.05,1.17,–
